{
  "source": "the DeepSol protein solubility set",
  "data": [
    {"experiment": "soluble on expression in E. coli; label from the status in PepcDB or PDB records", "values": [
      {"sequence": "MGSDKIHHHHHHENKLVSGAVGLGFGTGPTFPGADENDSGLFPVVDLKIGQYVVVNQRGLGLEHSRSLGHGELSYGLGVGYDFTSRSVEDDLRLAGLSDVDAGAMATLFLEYQTGPFSYGLEVMRGLNSDGHEGTRAKLSGGYDIQLSERAGLSVSPYLIWADDNWMDSFFSVSNAQSVASGLAAYDANAGMSQAGLNLTASYALREQVIVFASVDYATLLGDAADSSVSFDDNAASLSAGVMFRF", "soluble on expression in E. coli": "not soluble"},
      {"sequence": "MLQNRLNKARSHAEKHDVDAIVFFNMSNVRYLSGFTGSDGAVVLGRDASWFLTDSRYTTQASRQVVGLPTVEYRIKLDGITELVREQGFRRIGFESEHTAFAVYESLRQKLPKTELVPIGEELAQLRLIKDPSECELLSRVARLASEALLSILPLVKPGAVERELALELEFAMRRAGAENASFDFIVASGERGSLPHGRASDKALAAGELVTIDFGARYEGYCSDETVTVAVGVPDERQCQIYGIVKEAHDRAIAAVRPGAELREIDRIARGYIEEQGYGAFFGHGLGHGVGLDVHEKPVVSPRGEGVAAVGMVFTIEPGIYIPGWGGVRIEDTVIVTEDGCRPITMIPKELMIL", "soluble on expression in E. coli": "not soluble"},
      {"sequence": "MGSDKIHHHHHHMKVALRKTIGERLLELAKQDEKIVVVTSDARGSAAIADFFKVFPERSIEVGIAEQTAAGVAAGLALCGKKAWVFGPACFYSARNLEQIKNDIAYSDANVKIVAVSGGVSYGPLGSTHHALHDVAVMRAIPNLKVLLPSDAVLAAAILEQLLKDEKPVYMRTGRNPVPVIYSRDEKFEVGRAITLKEGNDITIIATGEVVWRALEAAKILEKEGISARVIDMFTVKPLDEEAVFRAARETGRIVTVEEHSIFGGLGGAVAEFLSQNLPTPMKILGIPDEYPVTGTQDEVLKHYGLAPEGIAKTVLEWFKEGN", "soluble on expression in E. coli": "not soluble"},
      {"sequence": "MAHHHHHHMIERTDVVTGTETQEGSTVPQEARQFLQIIATMQSESEERARIIGELRYRKLLVEEERDKNFMEREAVVAKLADARAQLLQLDVEHRELQKRQRSSESEILENSRQSQRCRTLLSTCRGDLTVHPMVPNSASELAAEATAAGTSSAAHNAYTEEAKWLKHLFITYGQLYNGTDFLQELRVSMKNLYVEVSKETHNTVQRNLSDWEATCLQSLPHLTADERTLLHFQLMLHPFV", "soluble on expression in E. coli": "not soluble"},
      {"sequence": "MITLFTFGPSFGLPDASPFVMKAELLLKMAGLPYQTARGNLRRAPKGKLPYLDDMGRIVADSTLIRWHIEKTYHVDFDEGLSPAERGTAWAVEKLMEDNLYWAVARVRWLERDNFERGPAQFFNVVPGPLRGLVKVLVRRKVRQMLWAQGLGRHSEQDMTAMAVQGIKAITDILGDKPYLMGNNPCGADATLFAFAASLLSPVFETPIRAAAESHPNLIAYMARMRTRYYPDFQGSGVFAPASAATAGRPEAAFGQQLEHHHHHH", "soluble on expression in E. coli": "soluble"},
      {"sequence": "MVDKGVKIKVDYIGKLESGDVFDTSIEEVAKEAGIYAPDREYEPLEFVVGEGQLIQGFEEAVLDMEVGDEKTVKIPAEKAYGNRNEMLIQKIPRDAFKEADFEPEEGMVILAEGIPATITEVTDNEVTLDFNHELAGKDLVFTIKIIEVVE", "soluble on expression in E. coli": "soluble"},
      {"sequence": "MSLVACECLPSPGLEPEPCSRARSQAHVYLEQIRNRVALGVPDMTKRDYLVDAATQIRLALERDVSEDYEAAFNHYQNGVDVLLRGIHVDPNKERREAVKLKITKYLRRAEEIFNCHLQRPLSSGASPSAVQLVQDPATGGTFVVKSLPRCHMVSRERLTIIPHGVPYMTKLLRYFVSEDSIFLHLEHVQGGTLWSHLLSQAHSRHSGLSSGSTQERMKAQLNPHLNLLTPARLPSGHAPGQDRIALEPPRTSPNLLLAGEAPSTRPQREAEGEPTARTSTSGSSDLPKAPGGHLHLQARRAGQNSDAGPPRGLTWVPEGAGPVLGGCGRGMDQSCLSADGAGRGCGRATWSVREEQVKQWAAEMLVALEALHEQGVLCRDLHPGNLLLDQAGHIRLTYFGQWSEVEPQCCGEAVDNLYSAPEVGGISELTEACDWWSFGSLLYELLTGMALSQSHPSGIQAHTQLQLPEWLSRPAASLLTELLQFEPTRRLGMGEGGVSKLKSHPFFSTIQWSKLVGTSLETHLRTLIHWLSGPKPDCPG", "soluble on expression in E. coli": "soluble"},
      {"sequence": "MHTLLLLAALSNQITFTTTQQGDIYTVIPQVTLNEPCVCQVQILSVRDGVGGQSHTQQKQTLSLPANQPIELSRLSVNISSEDSVKIIVTVSDGQSLHLSQQWPPSAQ", "soluble on expression in E. coli": "not soluble"},
      {"sequence": "SNPAAEAEFNILLATDSYKVTHYKQYPPNTSKVYSYFECREKKTENSKLRKVKYEETVFYGLQYILNKYLKGKVVTKEKIQEAKDVYKEHFQDDVFNEKGWNYILEKYDGHLPIEIKAVPEGFVIPRGNVLFTVENTDPECYWLTNWIETILVQSWYPITVATNSREQKKILAKYLLETSGNLDGLEYKLHDFGYRGVSSQETAGIGASAHLVNFKGTDTVAGLALIKKYYGTKDPVPGYSVPAAEHSTITAWGKDHEKDAFEHIVTQFSSVPVSVVSDSYDIYNACEKIWGEDLRHLIVSRSTQAPLIIRPDSGNPLDTVLKVLEILGKKFPVTENSKGYKLLPPYLRVIQGDGVDINTLQEVCVLY", "soluble on expression in E. coli": "not soluble"},
      {"sequence": "MGSDKIHHHHHHMRQVLQKDKRDVQLSKALSYLLRHTAVKEKLTIDSNGYTPLKELLSHNRLKTHKCTVDDIHRIVKENDKQRFHIKTLGADEEWICATQGHSIKSIQPSDEVLVPITEASQLPQELIHGTNLQSVIKIIESGAISPMSRNHVHLSPGMLHAKGVISGMRSSSNVYIFIDCHSPLFFQTLKMFRSLNNVYLSSSIPVELIQKVVVKGNLKDEEKLDTLRRILHERNIPLEKI", "soluble on expression in E. coli": "not soluble"},
      {"sequence": "GPGSMEEGVDLREGLPEDVLAAVIAAPGQVTVEEARAQLNSSTSFRVDAGLVHLTADGAREQSQMETMLLKLATKIPPTGVSGAQFRAILEDEAPHFQPSAVGALSLKEAVQRYPRLFDVETDTTGKWFVRPAGVGKDGRASVGKNSGPISIINFCSERALMGNQADYVPLHVAMREESVASEGVLRDLVDSEELSKQLQIRFSVRLRPKRPVTNAFCFVDGDEIGLEAVDAIWKEMNLSDKSTRLVARQPTSRKHNSSDIVAPADMPTYAVVERKARELSLTQSVVLQDVIYMCSLRQFSLYADHIAKLNAFPDADVYVCCPSKVKLVAQKQFVPL", "soluble on expression in E. coli": "not soluble"},
      {"sequence": "MKFDDSKPIYKQIVHYIHTEIVTGTYEAGDKLLSVRELATKLEVNPTTIQRAYAELEEAGIIFTVRGTGKYLTEDKRRIEQLENHIAKQLTENFISEMSKLGINKEKIIAWVKKVEEVEVNASGK", "soluble on expression in E. coli": "not soluble"},
      {"sequence": "MPRAVAERGDVVPVLAEVFRSHGFDGASLAVITEHTGLGKGSLYNFFPRGKDEMAEAVLDEVDAWFQTAVYLPLRGSEPAAARLERMFDEVETYFRSGRRICLFGAFALGLERDRFADRVRAYFTDWVDSLAGALADAGHGRPSRPLAEEVVAGIQGALVLARALDDPDSFTRILTRLRRSVGDPTTSRA", "soluble on expression in E. coli": "soluble"},
      {"sequence": "MGSDKIHHHHHHMMSFREDKLLATNVPMRIVSLISKINEYKGKQVLYNQQAPEVLNTLKNVAIIQSTRASNSLEGITIKDTRLIDIMQNKVQPANRSEGEIAGYRDVLATIHSSYDAIPVKPSILLQFHRDLYRFISLEGGSWKNSDNAIEEVYPDGSKFVRFNPVSSFATPGAIEELCKFYNQYSNSGEIDSLMLISATILDFLCIHPFCDGNGRMARLLTLLLLYKEGYEVGRFISLEQIIEESKDAYYDTLYQSSQNWHEGKHDLLIWSEYLLGIILAAYKELMDRVGKVSRARGNKAMRVEETIDHFVSNFSINDIRRRCPDISPSTINRVLAKLRDANKIEVLGIGRGAKWKKNY", "soluble on expression in E. coli": "not soluble"},
      {"sequence": "MEIKMAKDYGFCFGVKRAIQIAEKNQNSLIFGSLIHNAKEINRLEKNFNVKIEEDPKKIPKNKSVIIRTHGIPKQDLEYLKNKGVKITDATCPYVIKPQQIVESMSKEGYQIVLFGDINHPEVKGVISYATNQALVVNSLEELQEKKLQRKVALVSQTTKQTPKLLQIASYLVERCTEVRIFNTICNATSYNQKAALDLSKEVDIMIVVGGKTSSNTKQLLSIAKQHCKDSYLVEDENELELAWFKDKKLCGITAGASTPDWIIENVKQKISTILEHHHHHH", "soluble on expression in E. coli": "not soluble"},
      {"sequence": "MYKATVIIKLKKGVLNPEGRTIQRALNFLGFNNVKEVQTYKMIDIIMEGENEEKVKEEVEEMCKKLLANPVIHDYEIKVEKIE", "soluble on expression in E. coli": "soluble"},
      {"sequence": "MGSDKIHHHHHHMKRLRVTLAQLNPTLGDFEGNLKKAIEALRVAEDRGSDLLVFPELFLPGYPPEDLMLRLSFLRENRKYLQKFAQHTRNLGVTVLMGFIDSDEDAYNAAAVVKDGEILGVYRKISLPNYGVFDERRYFKPGEELLVVKIGNIKVGVTICEDIWNPVEPSASLSLGEGVHLIANLSASPYHVGKPVLRKDYLSMKAYDYHVAMAYCNMVGGQDELVFDGGSMVVDASGEVINYGKLFEEEIITVDLDLDENLRVSLVDPRRRYMKTQNYPVKTVEAGNLREKSGHFEPVVNPLPVREEEMFRALITGLRDYVRKNGFEKVVIGLSGGMDSSLVAVIATEALGKENVKGVLMPSMYTSKESIEDAQTLAKNLGIETFIIPITDVFHSYLETLKGVFAGREPDITEENLQARIRGNYLMALSNKFGWLVLTTGNKSEMATGYATLYGDMAGGFAVIKDVYKTDVYRIGRWYNSWRGKEIIPENIFVKPPTAELRPGQTDQEKLPPYEVLDEILRLYIEEGLDPEEIASKGFDRKTVLDVTEMIRKNEYKRKQAAIGVKISTRAFGKDWRMPITNRFKEPL", "soluble on expression in E. coli": "not soluble"},
      {"sequence": "MKSKRLSLVLMTAALGLTACATTQSPTGRSQTLLYSSSQMQQMGDASFAEMKKQQKISGNKKLTQYVNCVANRVTAVLPDQTQKWDVVLFDSEQVNAFALPGGHIGVYTGLLKVASTPDQLATVLGHEVAHVLAQHGNEQVSRSQMTGMGMQIADAALGAGGVSNRDLYMSALGLGAQVGVILPFGRAQESEADIMGLELMARAGFDPAQSVVLWQNMSKAGGGKGPELLSTHPSNNNRIAQLEQLQGQMQPLYQSAKANIKNQCAAPKLEHHHHHH", "soluble on expression in E. coli": "not soluble"},
      {"sequence": "MSLKVRLEDVAKRLGVSVATVSRSLAGHPAISSETRGAVRAVASELGYRIPTQGRRGKKSSTKLIGVVVGALHNRFMTLLLTHLHDALQELGYQMTLVIDSMNDSQNLQALRPLIEGYLDGLIFATATLDSPVIAEMQRRAIPLVLVVRSVDDVRVDTVEIDNVHAGAVAAEHLYQLGHRRIGLVMGPQNTSTSRDRAKGALTYLADIGISSEAVTLMWSDYTTEAGYSSAMAIFNEADPVTAIVAGNDTIALGVLEAAARRAIKVPEQLSVIGFDDMPLAGSPLVALTSIRQPVRAMARTAARRLIDRIRAGGMGAPVHDVLPIQLVRRETTGPREGHHHHHH", "soluble on expression in E. coli": "soluble"},
      {"sequence": "GPGSMWDVVSRVGKAAYRTAALTGLAAGTEQPPYPCALPLKTVSSDSDVDSMREVLNSAFDASKDMLENNGEHQWQLVDYVDPEEGGDLHLFTRPRVGPFNFVKATLSFMGVSPQNVLDTMHSDNADDRKRYSANLSHFEVLAKPMAGCAIELHKYWAPPPVAGREFVFAAEKKYVESENVYYVHGCSIDYTPQMETSKGFVRAACLWAWKLMPVGDNTLATYVSCMNPRGWTPPFIFGWLKSEIGKELVACRRVLYGETVKVERTTLQGMGLSDEVNNLTDEERKRMSEGEPQPEAS", "soluble on expression in E. coli": "soluble"},
      {"sequence": "MAHHHHHHMLRCSCARRRGVYHNAPSVYPFVKPFHDTPYDQDRGRHDSVGQRYRKNSWPEWMDNGADGTGYGIGLHRTHPLSRLRGNLKRSPSHVPRVLGMMIQGVWHKSGVKLYFRGGKPPNPSVHPYLTGEPCPLYGWKVTDESVIRQFNMPSIDGTNFRYKPYVALQERKIMGVQVPSDSVSLASGRTTESKPLAKRLFFWR", "soluble on expression in E. coli": "not soluble"},
      {"sequence": "MAHHHHHHMNEEILKNIKVNNNFLEFEEIIKDINTPFNFIDLVEIPCVPVVDLYGLSLLNNEAYLEYKSGLREDKLNADDEIKLTLFFAVKLYKKNIIRIKFPSYYDIIETLKFDPVSVTIGLFNQFYFETAYELCNLLPINEWPSTNFYDILRKAEKTRIHFLINNKTKLNSYFLEGLTNKEKKIYKYFLEGTSKEREKLNKETTLFHFYEKEKC", "soluble on expression in E. coli": "not soluble"}
    ]}
  ]
}
